Where no end group is shown, it is not given here.
Assays:
Experiment in all cases: FP
[1] = molecular target: T1, AnkB_repeats site 3 mutant 'LFL' (Leu366, Phe399 and Leu432 to Gln) (human, UniProt Q01484 28-873, Leu366 substituted with Gln | Phe399 substituted with Gln | Leu432 substituted …)
T1 sequence: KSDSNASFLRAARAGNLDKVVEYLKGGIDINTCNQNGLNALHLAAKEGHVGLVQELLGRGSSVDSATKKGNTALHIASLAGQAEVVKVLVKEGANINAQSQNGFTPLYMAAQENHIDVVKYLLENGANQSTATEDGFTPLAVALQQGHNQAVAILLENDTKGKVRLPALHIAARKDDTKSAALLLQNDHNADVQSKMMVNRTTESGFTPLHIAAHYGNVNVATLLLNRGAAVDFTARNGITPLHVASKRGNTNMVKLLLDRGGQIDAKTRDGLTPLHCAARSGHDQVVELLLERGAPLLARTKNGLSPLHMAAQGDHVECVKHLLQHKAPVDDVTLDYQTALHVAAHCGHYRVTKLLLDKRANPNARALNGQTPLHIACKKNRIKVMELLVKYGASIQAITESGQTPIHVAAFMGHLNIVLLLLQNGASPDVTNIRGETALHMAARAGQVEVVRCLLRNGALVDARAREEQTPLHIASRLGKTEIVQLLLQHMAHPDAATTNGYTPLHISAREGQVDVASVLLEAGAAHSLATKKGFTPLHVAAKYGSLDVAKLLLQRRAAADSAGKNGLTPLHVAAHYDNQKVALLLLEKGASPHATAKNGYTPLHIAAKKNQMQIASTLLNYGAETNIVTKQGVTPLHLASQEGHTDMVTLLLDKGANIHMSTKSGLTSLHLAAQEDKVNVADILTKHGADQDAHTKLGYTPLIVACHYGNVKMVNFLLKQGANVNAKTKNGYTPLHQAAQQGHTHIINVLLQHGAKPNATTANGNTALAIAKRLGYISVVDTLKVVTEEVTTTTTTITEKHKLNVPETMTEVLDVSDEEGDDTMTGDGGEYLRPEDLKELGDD

[2] = molecular target: T2, AnkB_repeats site 1 mutant 'FF' (Phe131 and Phe164 to Gln) (human, UniProt Q01484 28-873, Phe131 substituted with Gln | Phe164 substituted with Gln)
T2 sequence: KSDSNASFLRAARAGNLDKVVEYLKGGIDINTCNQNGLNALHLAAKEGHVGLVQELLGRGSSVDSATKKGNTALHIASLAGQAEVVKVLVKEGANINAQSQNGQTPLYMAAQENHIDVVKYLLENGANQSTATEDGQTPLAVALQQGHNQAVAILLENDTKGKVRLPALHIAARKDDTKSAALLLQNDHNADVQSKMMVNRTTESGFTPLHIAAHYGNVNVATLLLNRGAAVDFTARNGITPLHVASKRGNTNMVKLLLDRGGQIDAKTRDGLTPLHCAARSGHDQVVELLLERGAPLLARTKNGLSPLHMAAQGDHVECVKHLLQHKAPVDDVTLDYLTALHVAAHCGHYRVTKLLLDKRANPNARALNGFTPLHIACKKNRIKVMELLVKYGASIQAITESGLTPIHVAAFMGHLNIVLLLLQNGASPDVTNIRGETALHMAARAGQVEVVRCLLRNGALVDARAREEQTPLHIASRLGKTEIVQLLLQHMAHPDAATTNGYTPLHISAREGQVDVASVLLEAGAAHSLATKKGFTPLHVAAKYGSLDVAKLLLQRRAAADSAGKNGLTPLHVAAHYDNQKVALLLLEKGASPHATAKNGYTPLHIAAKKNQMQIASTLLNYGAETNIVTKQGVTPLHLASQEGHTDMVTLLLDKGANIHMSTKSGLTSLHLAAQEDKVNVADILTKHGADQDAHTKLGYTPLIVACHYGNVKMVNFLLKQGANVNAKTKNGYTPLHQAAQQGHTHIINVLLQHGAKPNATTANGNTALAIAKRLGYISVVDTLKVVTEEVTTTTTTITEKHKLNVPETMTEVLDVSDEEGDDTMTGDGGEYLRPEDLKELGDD

[3] = molecular target: T3, AnkB_repeats site 2 mutant 'IL' (Ile267 and Leu300 to Gln) (human, UniProt Q01484 28-873, Ile267 substituted with Gln | Leu300 substituted with Gln)
T3 sequence: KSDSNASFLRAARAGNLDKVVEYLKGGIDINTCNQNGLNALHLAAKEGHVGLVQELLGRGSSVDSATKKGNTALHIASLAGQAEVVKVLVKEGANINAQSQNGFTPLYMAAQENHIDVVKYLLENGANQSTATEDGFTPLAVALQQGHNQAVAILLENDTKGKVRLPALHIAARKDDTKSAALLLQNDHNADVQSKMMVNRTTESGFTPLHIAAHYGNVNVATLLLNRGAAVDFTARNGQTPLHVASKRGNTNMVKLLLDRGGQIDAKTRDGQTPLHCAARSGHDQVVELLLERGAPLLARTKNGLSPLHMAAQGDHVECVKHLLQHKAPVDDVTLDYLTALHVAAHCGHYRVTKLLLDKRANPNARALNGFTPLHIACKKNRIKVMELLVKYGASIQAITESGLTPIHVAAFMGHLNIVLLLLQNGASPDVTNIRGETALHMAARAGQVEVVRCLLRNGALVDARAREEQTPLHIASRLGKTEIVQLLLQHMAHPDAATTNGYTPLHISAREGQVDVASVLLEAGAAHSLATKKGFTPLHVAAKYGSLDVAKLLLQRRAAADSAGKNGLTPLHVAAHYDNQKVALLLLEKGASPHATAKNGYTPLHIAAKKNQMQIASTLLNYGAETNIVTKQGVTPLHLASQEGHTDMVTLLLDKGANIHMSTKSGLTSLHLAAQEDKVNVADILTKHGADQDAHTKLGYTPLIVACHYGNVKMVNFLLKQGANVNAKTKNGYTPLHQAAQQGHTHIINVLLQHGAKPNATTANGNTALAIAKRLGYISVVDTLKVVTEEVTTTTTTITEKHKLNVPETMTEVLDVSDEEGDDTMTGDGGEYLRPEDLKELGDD

- Kd [1]: 4 µM
- Kd [2]: 3.3 µM
- Kd [3]: 8.2 µM
B1: Cav1.3 peptide (mouse Cav1.3 residues 2134–2166), FITC-labeled (peptide, UniProt Q99246-4 2134-2166, looked up)
peptide: ELQDFGPGYSDEEPDPGREEEDLADEMICITTL
modifications: also: FITC label (position not given here)
notes: voltage-gated calcium channel Cav1.3, mouse, residues 2134-2166; also called voltage-gated calcium channel Cav1.3 peptide; source: synthetic peptide (commercially synthesized)

— paper PMC4358367, “Structural basis of diverse membrane target recognitions by ankyrins” (eLife, 2014)
